The values that follow come from PMC6195595, “Structure-based redesign of docking domain interactions modulates the product spectrum of a rhabdopeptide-synthesizing NRPS” (Nature Communications, 2018).

B4: Kj12C N-terminal docking domain (domain or fragment)
chain: MIDAAQIVDEALEQGITLFVVNNRLQYETSRDSIPTELLNKWKQHKQELIDFLNQLDSEEQTK
notes: Kj12C of Xenorhabdus stockiae KJ12.1, N-terminal docking domain, 63 residues; 15N-labelled for the NMR titrations; also called Kj12C-NDD; source: E. coli BL21-Gold(DE3), purified (HisTrap, Ulp1 cleavage, anion exchange, SEC); not shown: His6-SUMO, N-terminal, cleaved

Holding throughout (assay): ITC; 50 µM NDD (or Kj12C construct) in the cell titrated with 1 mM CDD peptide; 20 °C; 50 mM sodium phosphate pH 6.5, 100 mM NaCl; one site binding model; three independent titrations
Common to all, as to conditions: both partners purified
In general terms: In ITC the heat of successive injections is recorded.

The target of test [1] is B4.
Test [2] concerns the target B4.
Test [3] has as its target T1, Kj12B-CDDshort R1565E peptide (Xenorhabdus stockiae KJ12.1, R1565E (stands in the printed letters)).
T1 construct: source: synthetic peptide (Fmoc solid-phase synthesis, preparative HPLC)

For test [4], the target named is T2, Kj12A N-terminal docking domain (Xenorhabdus stockiae KJ12.1).
T2 construct: also called Kj12A-NDD; source: E. coli BL21-Gold(DE3), purified (HisTrap, Ulp1 cleavage, anion exchange, SEC)
T2 chain: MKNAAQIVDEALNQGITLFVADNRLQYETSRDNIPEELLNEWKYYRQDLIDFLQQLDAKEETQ

For test [5], the target named is T3, Kj12B N-terminal docking domain (Xenorhabdus stockiae KJ12.1).
T3 construct: also called Kj12B-NDD; source: E. coli BL21-Gold(DE3), purified (HisTrap, Ulp1 cleavage, anion exchange, SEC)
T3 chain: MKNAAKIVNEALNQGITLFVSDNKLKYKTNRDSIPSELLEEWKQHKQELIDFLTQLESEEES

Some results are limits rather than exact numbers.

B1: Kj12B-CDDshort peptide (peptide)
peptide: QEYLRGEI
notes: source: synthetic peptide (Fmoc solid-phase synthesis, preparative HPLC)
As to B1, the “stoichiometry N” value in test [1] turned out to be 1.05 ± 0.11 sites.

B2: Kj12B-CDDshort L1564A peptide (peptide)
peptide: QEYARGEI
notes: as for B1
As for B2, the dissociation constant Kd in test [2] is > 100 µM.

B3: Kj12B-CDDshort G1566A peptide (peptide)
peptide: QEYLRAEI
notes: as for B1
Consider B3, for which, in test [2], the Kd was > 100 µM. With B4, the Kd in test [3] was > 100 µM.

B5: Kj12B C-terminal docking domain peptide (peptide)
peptide: LLKEKRKHFQAEQNSSQEYLRGEI
notes: also called Kj12B-CDD; source: synthetic peptide, bought: JPT Peptides Technologies GmbH
For the molecule B5, the “stoichiometry N” value in test [4] came to 0.81 ± 0.01 sites; in test [5], 1 sites; in test [1] it was 0.9 ± 0.12 sites.

The term stoichiometry N denotes a count of units in the complex or per binding partner. The Kd is the constant that tells how readily two partners part at equilibrium. A higher Kd goes with weaker binding.
